± gives the standard error. Fewer inactive variants are shown than the library holds.
B1: glmS ribozyme (parent)
chain: AUAAAAGCGCCAGAACUACAGAAAUGUAGUUGACGAGGAGGAGGUUUAUCGAAUUUUCGGCGGAUGCCUCCAAA

Variants of: B1
Assay: self-cleavage kobs at 2500 uM GlcN6P; higher = faster cleavage; RNA array
Details: with glucosamine-6-phosphate
Outline: (§1)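 Glucosamine-6-phosphate (40 μM to 10 mM) in HEPES/KCl/Mg(OAc)2 buffer was flowed over sequenced MiSeq chips, and tiles were imaged over ~14 h. Barcoded ribozyme variants there had been transcribed in situ by E. coli RNA polymerase and were tracked through a hybridised Cy3 probe at 37 °C. One- or two-exponential decay fits to per-tile medians, normalised to baseline and to non-cleaving reference variants, gave kobs. kcat and KM came from weighted Michaelis–Menten fits across concentrations.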

Row | Variant | self-cleavage kobs at 2500 uM GlcN6P [s⁻¹]
1 | AUAAAAGCGCCAGAACUACAGAAAUGUAGUUGACGAGGAGGAGGCUUAUCGAAUUUUCGGUGGAUGCCUGCAAA [U45C C61U C70G] | < 1e-05
2 | AUAAAAGCGCCAGAACUACAGAAAUGUAGUUGAUGCGGUGGAGGUUUAUCGAAUUUUCGGCGGAUGCCUCCAAA [C34U A36C A39U] | < 1e-05
3 | AUAAAAGCGCCAUAACUACAGAAAUGUACUUGACGAGGACGAGGUUUAUUGCAUUUUCGGCGGAUGCCUCCAAA [G13U G29C G40C C50U A52C] | < 1e-05
4 | AUAAAAGCGCCAGAACUACAGAAAUGUAGUUGACGAGGAGGACGUUUAUCGAAUUUUCGGCGGAUGACGCCAAA [G43C C67A U69G] | 0.000151 ± 6e-05
5 | AUAAAAGCGCCAGAACUACAGAAAUGUAGUUGACGGGGAGGAAGUUUUUCGGAUUUUCGGCGGAUGCCUCCAAA [A36G G43A A48U A52G] | < 1e-05
6 | AUAAACGCGCCAUAACUACAGAAAUGUAGUUGACGAGGAGGAGGUUUAUCGAAUUUUCGUCGGACGCCUCCAAA [A6C G13U G60U U65C] | < 1e-05
7 | AUAAAAUCGCCAGAACUACAGAAAUGUAGUUGAUGAGGAGGAGGUUUAUCGAAUUUUCGUCGGGUGCCUCCAAA [G7U C34U G60U A64G] | < 1e-05
8 | AUAAAAGCGCCAGUACUACAGAAAUGUAGUAGACGAGGAGGAGGUUUAUCGAAUUUUCGGCGGAUGCCACCAAA [A14U U31A U69A] | 0.000236 ± 5.6e-05
9 | AUAAAAGCGCCAGAACUACAGAAAUGUAGUUGACGAGGAGGACGAUUAUCGAAUUUUCGGCGGAUGCGUCCAAA [G43C U45A C68G] | 0.00405 ± 0.0014
10 | AUAAAAGCGCCAGAACUACAGAAAUGUAGUUGACGAGGAGGAGUUUUAUCGAAUUUUCGGCCGAUAGCUCCAAA [G44U G62C G66A C67G] | < 1e-05
11 | AUAAAAGCGCCAGAACUACAGAAAUGUAGUUGACGAGGAGGAGGUGUAUCUAAUUUUCAGCGGAUGCCUCCAAA [U46G G51U G59A] | < 1e-05
12 | AUAAAAGCGCCCGAACUACAGAAAUGUAGUUGACGAGGAGGAGGUUUAUCGAAUUUUCGGCGGAGGCCCCCAAA [A12C U65G U69C] | 0.000703 ± 0.0002
13 | AUAAAACCGCCAGAACUACAGAAAUGUAGUUGACGAGGAGGGGGUUUAUCGAAUUUUCGGCGGAUGCCGCCAAA [G7C A42G U69G] | < 1e-05
14 | AUAAAAGCGCUAGAACUACAGAAAUGUAGGUGACGAGGAGGAGGUUUAUCGAAUUUUCGGCGGAUGCGUCCAAA [C11U U30G C68G] | < 1e-05
15 | AUAAAAGCGCCAGAACUACAGAAAUGUAGGUGACAAGGAGGAGGUUUAUCAAAUUUUCGGCGGAUGCCUACAAA [U30G G35A G51A C70A] | < 1e-05
16 | AUAAAAGCGCCAGAACUACAGAAAUGUAGUCGAGGAGGUGGGGGUUCAUCGAAUUUUCGGCGGAUGCCUACAAA [U31C C34G A39U A42G U47C C70A] | < 1e-05
17 | AUAAAAGCGCCAGAACUACAGAAAUGUAGUUGACCAGGAGGAGGUUUAUCGAAUUUUGGUCGGACGCCUCCAAA [G35C C58G G60U U65C] | < 1e-05

Row | Variant | self-cleavage kobs at 2500 uM GlcN6P [s⁻¹]
18 | AUAAAACCGCCAGAACUACAGAAAUGUAUUUCGCGAGGAGGAGGUUUAUCGAAUUUUCGGCGGAUGCCUCCAAA [G7C G29U G32C A33G] | < 1e-05
19 | AUAAACGCGCUAGAACUACAGAAAUGUAGUUGACGAGGAGGAGGUUUAUCGAAUUUUCGGCGGAUGCUUCCAAA [A6C C11U C68U] | < 1e-05
20 | AUAAAUGCGUCAGAUCUACAGAAAUGUAGUUGACGAGGAGGAGGUUUAUCGAGUUUUCGGCGGAUGCCUCCAAA [A6U C10U A15U A53G] | < 1e-05
21 | AUAAAAGCGCCAGAACUACAGAAAUGUAGUUAACGAGGAGCAGGUUUAUCGAAUUUUCGGCGGAUGCUUCCAAA [G32A G41C C68U] | < 1e-05
22 | AUAAAAGCGCCAGAACUACAGAAAUGUAUUUGACGAGGAGUAGGUUUAUCGAAUUUUCGGCGGAUGGCUCCAAA [G29U G41U C67G] | < 1e-05
23 | AUAAAAGCGCCAGAACUACAGAAAUGUAGUUGACGAGGAUGUAGUUUAUCGAAUUUUCGGCGGAUGCCUCAAAA [G40U A42U G43A C71A] | < 1e-05
24 | AUAAAAGCGCCAGGACUACAGAAAUGUAGUUGACGAGGAGGAGGUUUAUCGAAUUUUCGGCGCUUGCCUCCAAA [A14G G63C A64U] | < 1e-05
25 | AUAAAAGCGCCAGAACUACAGAAAUGUAGUUGACGAGGAGGAGGUUUCUCGAAUUUUCGGCGAAUGCCUCAAAA [A48C G63A C71A] | < 1e-05
26 | AUAAAAGCGCCAGAACUACAGAAAUGUAGUUGACGACGAGGAGGUUUAUCGAAUUUCGGGCGGAUGCCUCCAAA [G37C U57C C58G] | < 1e-05
27 | AUAAAGGCACCAGAACUACAGAAAUGUAGUUGACGAGAAGGAGGUUUGUCGAGUUUUCGGCGGAUGCCUCGAAA [A6G G9A G38A A48G A53G C71G] | < 1e-05
28 | AUAAAAGCGCCAGUACUACAGAAAUGUAGUUGACGAGGAGGAGAUUUAUAGAAUUUUCGGCGGAUGCCUCCAAA [A14U G44A C50A] | < 1e-05
29 | AUAAAAGCGCCAGAACUACAGAAAUGUAGUUGACGAGGAGGAGUUUUAUCGAAUUUUCGGCGGAUGUCUCAAAA [G44U C67U C71A] | 3.95e-05 ± 1.3e-05
30 | AUAAAAGCGCCAGAACUACAGAAAUGUAGUUGACGACGAGGAGGUUUAUCGAAUGUUCGGCGAAUGCCUCGAAA [G37C U55G G63A C71G] | < 1e-05
31 | AUAAAAGCGCCAGAACUACAGAAAUGUAGUUGACGAAGAGGAGGUUUACCGAUUUUUCGGCGGAUGCCUCCAAA [G37A U49C A53U] | < 1e-05
32 | AUAAAAGCGCCAGAACUACAGAAAUGUAGUUGACGCGGAGGCGGUUUAUCGAACUUUCGGCGGAUGCCUCCAAA [A36C A42C U54C] | < 1e-05
33 | AUAAAAGCGCCAGAACUACAGAAAUGUACUUGACGAGGAGGAGGUUUAUCGAAUUUUCGGCAGAUGCCUGCAAA [G29C G62A C70G] | 3.86e-05 ± 1.9e-05
34 | AUAAAAGCGCCAGAACUACAGAAAUGUAGUUGACGAGGAGGGGGUUUAUCGAAUUUUCGGCGGAAUCCUCCAAA [A42G U65A G66U] | 7.25e-05 ± 2.4e-05

Variants of: B1
Assay: self-cleavage kobs at 10000 uM GlcN6P; higher = faster cleavage; RNA array
Details: with glucosamine-6-phosphate
Outline: as §1

Row | Variant | self-cleavage kobs at 10000 uM GlcN6P [s⁻¹]
35 | AUAAAAUCGCCAGAACUACAGAAAUGUAGUUGAUGAGGAGGAGGUUUAUCGAAUUUUCGUCGGGUGCCUCCAAA [G7U C34U G60U A64G] | < 1e-05
36 | AUAAAAGCGCCAGAACUACAGAAAUGUAGUUGACGAGGAGGAGUUUUAUCGAAUUUUCGGCGGAUGUCUCAAAA [G44U C67U C71A] | 4.71e-05 ± 1.2e-05
37 | AUAAAAGCGCCAGAACUACAGAAAUGUAGUUGACGACGAGGAGGUUUAUCGAAUGUUCGGCGAAUGCCUCGAAA [G37C U55G G63A C71G] | < 1e-05
